Key:
[1] = molecular target: recombinant human soluble MSLN (human) (UniProt Q13421); assay: Biacore (SPR), antibody captured on chip, rHuMSLN sol. in flow
[2] = molecular target: native human MSLN expressed on the cell surface (N87 tumor cells) (human) (UniProt Q13421); assay: KinExA equilibrium binding to N87 tumor cells expressing native human MSLN
[3] = molecular target: native human MSLN expressed on the cell surface (N87 tumor cells) (human) (UniProt Q13421); assay: KinExA on N87 cells compared with Biacore on soluble MSLN

Chain of native human MSLN expressed on the cell surface (N87 tumor cells) (human) (Q13421 296-606 limits assumed): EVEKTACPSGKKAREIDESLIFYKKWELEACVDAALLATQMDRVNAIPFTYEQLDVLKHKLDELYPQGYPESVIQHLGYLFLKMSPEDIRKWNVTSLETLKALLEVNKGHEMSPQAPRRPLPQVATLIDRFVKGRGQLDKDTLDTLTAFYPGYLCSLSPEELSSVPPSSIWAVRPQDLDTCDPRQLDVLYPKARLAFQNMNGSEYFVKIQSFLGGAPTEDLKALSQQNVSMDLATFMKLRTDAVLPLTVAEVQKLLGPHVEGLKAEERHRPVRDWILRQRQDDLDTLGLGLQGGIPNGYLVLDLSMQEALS
Chain of recombinant human soluble MSLN (human) (Q13421 296-606 limits assumed): as above

Kd [1]: 0.097 nM
Kd [2]: 0.0035 nM
fold higher selectivity for native surface bound MSLN compared to soluble MSLN [3]: 30 fold
B1: Ab237 (antibody, V domains shown)
VH: QVQLQESGPGLVKPSQTLSLTCTVSGGSINNNNYYWTWIRQHPGKGLEWIGYIYYSGSTFYNPSLKSRVTISVDTSKTQFSLKLSSVTAADTAVYYCAREDTMTGLDVWGQGTTVTVSS
VL: DIQMTQSPSSLSASVGDRVTITCRASQSINNYLNWYQQKPGKAPTLLIYAASSLQSGVPSRFSGSRSGTDFTLTISSLQPEDFAAYFCQQTYSNPTFGQGTKVEVK

Reference: patent US20190055316A1
